# Assay results published in publication doi:10.1101/2024.05.21.594841 (bioRxiv, 2024).
# Where two headings read alike, the source gives them in different places.
# B1: Kre5p (natural protein)
# chain: WTYSLRYGIPESAQVWSILVHLLGDVDNQLLTNLYPLVTGLDDEIDIQENLVALTSNVLRERYDKEDVADLLELYASLYPMGMIQHDISSNAEQDDANSSYFVLNGNRYEKPDDVFYLKSKDLTIQQKVPDVDVIQPYDVVIGTNSEAPILILYGCPTVIDSDFEEFNRNLFMEAMNGEGKFRFIWRSTCSLDGKSVEYPLTHPLEITLQNGSRMSSIPQLKKILYTVPKEILVGADNDDQLHDLEPEELRELDLRVTSLISEFYQYKKDITATLNFTKSIVNNFPLISKQLIKVSSVNKDIITSNEELNSKGFDYNMLGLYINGQNWKITSLTPYNLLTALKTEYQSLLKITNLLQELEPSKCILDSKFLLNKFSQFSLGKLQNLQPIKMDLHTIPGFSESVIYFNDIESDPQYDELVNSVQAFFDKSKFGELPEIKQNWSEIIFVIDFARLEDSEVKEALGGLVRAVNVVSQGYPQRVGLLPFSSDSDKSVVNKIYELKNSTDNLTELKSFLETMLLADGLSANAKHSKHIPVPDVFHLLDELQIDETSIIINGEIYPFRKNAWNYLIAKVIKKDTEFIRKELSNSSPKNKQISVRDLLHYKSANLRHNKYTPNYFADSVYSSVNNTALESVCSERIGYYTKNEEYNLLHTITLVDDFGSIHALKRLRNLLHTSFVGVRIRIIHVGDISDIWYQLRGSLSQKDPIGSINTFIDALKLKKVKSHTYKKSGLNQLGLHKWLPDIPLFELQKGSFIALNGRFIHLDQNEVPETEHFEAIIKREALRTIDSVFALDLLFPGFSQEIINPDLIEMISSILTRLFYQGTHIYNNGIDYTTESSLPRMDLSEFFRPNNLTMFEDGKSASIDLLLILDPLEERTQMILSLVEQFRPLKFVNIQVILMPTLELNIVPIRRIYVDDADIVKSITSEDSRSDPEVDIEMDVPNSFIVDNNYRIKKLLIELHSFSSKTVLSTGNIDGMGGVCLALVDSAGNIIDKTTTMKTFGYGQFHTDKFLKGCYIKSCDSRYTVQSFSTDGHPDFIPSDSLDILSYNPQKIAVKISEEPTHEEEYEEGRNNDTIINIFTILESGPDEEERYMQMILSILSKCPETQKVNFFILDQPFISDTLRKSCEYINSSDEMRGNVIFLNYEWPQWLRPQRFSSRRRDVSRFLFLDVLLPQNISKVLYMSPTEVPLDPFDIFQFQGLKRAPLGLFRMSGDGYWKEGYWEKMLRENNLEFYSTEPAFLVNLERFRELDAGDKYRIHYQRISTDAMSLVNIGQDLVNNLQLEVPIRFLKGSYKKKLVINDECVSEWKKKINKFASSPGDEDVPGESVSSKYQDSDNAAPLHDEL
# How the values were obtained:
# Assay in all cases: split reporter
# Yos9p [1] = molecular target: T1, Yos9p (S. cerevisiae, UniProt Q99220 22-542)
# T1 sequence: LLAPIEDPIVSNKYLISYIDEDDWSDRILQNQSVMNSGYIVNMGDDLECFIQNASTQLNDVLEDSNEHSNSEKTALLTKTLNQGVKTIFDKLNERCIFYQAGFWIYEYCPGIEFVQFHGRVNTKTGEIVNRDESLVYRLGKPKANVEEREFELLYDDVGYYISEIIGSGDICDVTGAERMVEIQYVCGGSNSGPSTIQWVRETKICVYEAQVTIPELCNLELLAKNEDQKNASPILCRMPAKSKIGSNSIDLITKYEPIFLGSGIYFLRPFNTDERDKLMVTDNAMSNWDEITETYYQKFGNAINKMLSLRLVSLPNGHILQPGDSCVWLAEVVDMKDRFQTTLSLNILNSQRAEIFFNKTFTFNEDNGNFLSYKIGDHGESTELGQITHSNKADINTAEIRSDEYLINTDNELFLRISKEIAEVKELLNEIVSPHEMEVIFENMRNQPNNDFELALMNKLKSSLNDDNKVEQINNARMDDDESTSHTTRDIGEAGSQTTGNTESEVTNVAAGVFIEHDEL
# Mpd1p = molecular target: T2, Mpd1p (S. cerevisiae, UniProt Q12404 22-318)
# T2 sequence: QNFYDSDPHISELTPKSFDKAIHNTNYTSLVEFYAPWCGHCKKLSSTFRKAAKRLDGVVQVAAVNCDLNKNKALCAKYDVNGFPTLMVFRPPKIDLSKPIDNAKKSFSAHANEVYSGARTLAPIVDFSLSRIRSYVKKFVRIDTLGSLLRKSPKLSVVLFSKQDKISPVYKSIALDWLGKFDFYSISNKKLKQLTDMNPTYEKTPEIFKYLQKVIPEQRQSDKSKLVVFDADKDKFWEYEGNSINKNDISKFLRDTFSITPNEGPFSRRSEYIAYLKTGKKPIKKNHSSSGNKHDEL
# Cpr5p [2] = molecular target: T3, Cpr5p (S. cerevisiae, UniProt P35176 23-225)
# Pdi1p = molecular target: T4, Pdi1p (S. cerevisiae, UniProt P17967 29-522)
# T4 sequence: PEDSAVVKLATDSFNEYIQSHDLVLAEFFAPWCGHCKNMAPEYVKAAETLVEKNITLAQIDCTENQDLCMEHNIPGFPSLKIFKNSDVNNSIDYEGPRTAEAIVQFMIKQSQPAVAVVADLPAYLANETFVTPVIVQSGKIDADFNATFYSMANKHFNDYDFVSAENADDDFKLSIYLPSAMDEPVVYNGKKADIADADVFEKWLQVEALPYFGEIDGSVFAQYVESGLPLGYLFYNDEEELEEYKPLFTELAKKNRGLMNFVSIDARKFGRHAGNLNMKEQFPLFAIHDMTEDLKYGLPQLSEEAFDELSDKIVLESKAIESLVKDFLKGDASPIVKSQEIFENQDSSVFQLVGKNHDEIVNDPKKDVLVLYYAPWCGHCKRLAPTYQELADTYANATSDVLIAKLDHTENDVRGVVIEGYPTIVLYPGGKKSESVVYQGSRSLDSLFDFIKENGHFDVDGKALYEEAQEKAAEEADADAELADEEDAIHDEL
# Yos9p [3] = molecular target: T1, Yos9p; remark: listed apart in the source
# Cpr5p [4] = molecular target: T3, Cpr5p; remark: listed apart in the source
# T3 sequence (P35176 23-225): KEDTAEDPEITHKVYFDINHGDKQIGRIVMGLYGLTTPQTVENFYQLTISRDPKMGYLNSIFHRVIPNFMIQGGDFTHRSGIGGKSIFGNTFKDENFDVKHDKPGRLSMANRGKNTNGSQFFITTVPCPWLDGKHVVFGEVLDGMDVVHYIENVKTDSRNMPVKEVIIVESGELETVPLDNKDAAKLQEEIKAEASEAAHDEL
binder,measurement,setting,value
B1,normalized interacting score,Yos9p [1],64%
same,normalized interacting score,Mpd1p,21%
same,normalized interacting score,Cpr5p [2],59%
same,normalized interacting score,Pdi1p,23%
same,normalized interacting score,Yos9p [3],16%
same,normalized interacting score,Cpr5p [4],22%
